Laboratory results reported in PMC5587394 (Structure (London, England : 1993), 2017).

Molecular target: FGF9^WT (human FGF9, residues 35-208) (human, UniProt P31371 35-208)
Assay: SPR

B1: FGFR1c^ecto/WT (human FGFR1c ectodomain, residues 141-365) (domain or fragment)
chain: TDNTKPNRMPVAPYWTSPEKMEKKLHAVPAAKTVKFKCPSSGTPNPTLRWLKNGKEFKPDHRIGGYKVRYATWSIIMDSVVPSDKGNYTCIVENEYGSINHTYQLDVVERSPHRPILQAGLPANKTVALGSNVEFMCKVYSDPQPHIQWLKHIEVNGSKIGPDNLPYVQILKTAGVNTTDKEMEVLHLRNVSFEDAGEYTCLAGNSIGLSHHSAWLTVLEALEER
  binding result: binds
